Assay results taken from patent publication US20060110774A1.

Target: rabbit anti-GRK polyclonal antibody
Assay: competitive inhibition ELISA: pAb pre-incubated with pGRK, then added to immobilised rGRK

Question: Which concentration giving complete inhibition of antibody binding does the source give for NSQSYYNGDPFITKDC [synthetic peptide pGRK (…) derived from human Granzyme K] here?
Answer: 10 ng/µL
